Experimental data taken from patent US20120028912A1 (NEW YORK UNIVERSITY AND THE RESEARCH FOUNDATION OF THE …, published 2012).
Residue numbers refer to the chain shown, from its start. Names may count otherwise.

How the values were obtained:
[1] = biological target: T1, N-terminal biotinylated and lysine-acetylated Tat peptide (Tat AcK50) (HIV-1); experiment: pull-down with the biotinylated Tat-K50ac peptide on streptavidin agarose, anti-GST Western blot
T1 construct: also called biotinylated and wild type Tat peptide; Tat peptide containing AcK50

[2] = biological target: p300/CBP-associated factor (P/CAF), HA-tagged (human, UniProt Q92831 1-832); experiment: co-immunoprecipitation from cells with anti-FLAG (FLAG-Tat), western blot with anti-HA (HA-P/CAF)
[3] = biological target: T1, N-terminal biotinylated and …; experiment: pull-down with the N-terminal biotinylated, lysine-acetylated Tat peptide on streptavidin agarose, anti-GST western blot
[4] = biological target: T2, Tat AcK50 peptide SYGR-AcK-KRRQRC (SEQ ID NO:50) (HIV-1); experiment: NMR 2D 1H-15N HSQC
T2 construct: Synthetic peptide

B1: CBP (1082-1317) (other)
chain: KKIFKPEELRQALMPTLEALYRQDPESLPFRQPVDPQLLGIPDYFDIVKNPMDLSTIKRKLDTGQYQEPWQYVDDVWLMFNNAWLYNRKTSRVYKFCSKLAEVFEQEIDPVMQSLGYCCGRKYEFSPQTLCCYGKQLCTIPRDAAYYSYQNRYHFCEKCFTEIQGENVTLGDDPSQPQTTISKDQFEKKKNDTLDPEPFVDCKECGRKMHQICVLHYDIIWPSGFVCDNCLKKTGR
notes: also called GST-fusion CBP bromodomain-containing construct, residues 1082-1317 (lane 4); not shown: GST tag and linker of the pGEX4T-3 vector
B1: no binding [1].

B2: HIV-1 Tat protein, wild type (other)
chain: MEPVDPRLEPWKHPGSQPKTASNNCYCKRCCLHCQVCFTKKGLGISYGRKKRRQRRRAPQDSKTHQVSLSKQPASQPRGDPTGPKESKKKVERETETDPED
notes: also called Tat-KK; wild type Tat
B2: binds [2].

B3: HIV-1 Tat double mutant K50R/K51R (other)
chain: B2 chain with K50R, K51R
notes: also called Tat-RR; Tat K50R/K51R mutant protein
B3: no binding [2].

B4: GST-fusion bromodomain from TIF1 (other)
chain: KLSPANQRKCERVLLALFCHEPCRPLHQLATDSTFSLDQPGGTLDLTLIRARLQEKLSPPYSSPQEFAQDVGRMFKQFNKLTEDKADVQSIIGLQRFFETRMNEAFGDTKFSAVLVEP
notes: domain: bromodomain; also called bromodomain of TIF1; TIF1b
B4: no binding [3].

B5: TIF16 (624-812) (other)
chain: SATICRVCQKPGDLVMCNQCEFCFHLDCHLPALQDVPGEEWSCSLCHVLPDLKEEDGSLSLDGADSTGVVAKLSPANQRKCERVLLALFCHEPCRPLHQLATDSTFSLDQPGGTLDLTLIRARLQEKLSPPYSSPQEFAQDVGRMFKQFNKLTEDKADVQSIIGLQRFFETRMNEAFGDTKFSAVLVEP
notes: also called GST-fusion TIF1b bromodomain-containing construct, residues 624-812 (lane 6); the sheet prints 'TIF16'; not shown: GST tag and linker of the pGEX4T-3 vector
B5: no binding [1].

B6: TIF16 (702-812) (other)
chain: RKCERVLLALFCHEPCRPLHQLATDSTFSLDQPGGTLDLTLIRARLQEKLSPPYSSPQEFAQDVGRMFKQFNKLTEDKADVQSIIGLQRFFETRMNEAFGDTKFSAVLVEP
notes: also called GST-fusion TIF1b bromodomain construct, residues 702-812 (lane 5); not shown: GST tag and linker of the pGEX4T-3 vector
B6: no binding [1].

B7: bromodomain of P/CAF (residues 719-832 of SEQ ID NO:2) (other)
chain: SKEPRDPDQLYSTLKSILQQVKSHQSAWPFMEPVKRTEAPGYYEVIRFPMDLKTMSERLKNRYYVSKKLFMADLQRVFTNCKEYNAAESEYYKCANILEKFFFSKIKEAGLIDK
notes: also called P/CAF bromodomain; PCAF bromodomain
Binder B7 has a Kd [4] of about 20 µM.
